The source of these data is patent publication US20200147241A1 (AMICUS THERAPEUTICS, published 2020).

Substitutions are numbered along the chain they refer to. In names and notes the source's numbering stands.

This series deals with the molecule itself. The series is described as follows: reduced and non-reduced SDS-PAGE and Western blot of 293HEK cell lysate and culture media (homodimer formation). The source says:
The formation of disulfide bonded dimers of modified α-GAL was examined in cell lysate and culture media (FIG. 2A). Clones of each α-GAL construct were transiently expressed in 293HEK cell. Cell lysates and culture media were run on 4-12% gradient SDS-PAGE and transferred to nitrocellulose. α-GAL was detected by Western Blotting with rabbit monoclonal anti- α-GAL 1:2000 (abcam ab168341).
Reduced and non-reduced samples were subjected to electrophoresis and Western blotting.

B1: Human α-GAL M51C-G360C (enzyme)
chain: LDNGLARTPTMGWLHWERFCCNLDCQEEPDSCISEKLFMEMAELMVSEGWKDAGYEYLCIDDCWMAPQRDSEGRLQADPQRFPHGIRQLANYVHSKGLKLGIYADVGNKTCAGFPGSFGYYDIDAQTFADWGVDLLKFDGCYCDSLENLADGYKHMSLALNRTGRSIVYSCEWPLYMWPFQKPNYTEIRQYCNHWRNFADIDDSWKSIKSILDWTSFNQERIVDVAGPGGWNDPDMLVIGNFGLSWNQQVTQMALWAIMAAPLFMSNDLRHISPQAKALLQDKDVIAINQDPLGKQGYQLRQGDNFEVWERPLSGLAWAVAMINRQEICGPRSYTIAVASLGKGVACNPACFITQLLPVKRKLGFYEWTSRLRSHINPTGTVLLQLENTMQMSLKDLL
notes: It is the full precursor entry; Transiently expressed in 293HEK cells, tested in cell lysate and culture media; also called M51C-G360C α-GAL; modified α-galactosidase A
Take B1: the binding result is given as “binds”.

B2: Human α-GAL D233C-I359C (enzyme)
chain: B1 chain with C20M, D202C, I328C, C329G
notes: It is the full precursor entry; Transiently expressed in 293HEK cells, tested in cell lysate and culture media; also called D233C-I359C α-GAL; modified α-galactosidase A
B2: the binding result is given as “binds”.
